Data reported in CN113388029A (WUHAN INST VIROLOGY CAS, dated 2021).

Columns and labels:
[1] = biological target: T1, 新型冠状病毒囊膜蛋白受体结合域 WH-RBD-TFc (SARS-CoV-2 S蛋白 RBD 319-541 - 凝血酶位点 - 人源IgG1 Fc) (SARS-CoV-2; human, UniProt P0DTC2 319-541); assay: ELISA, WH-RBD-TFc coated at 4 μg/mL, Fab titrated, detected with HRP anti-FLAG antibody
[2] = biological target: T1, 新型冠状病毒囊膜蛋白受体结合域 WH-RBD-TFc (SARS-CoV-2 …); assay: ELISA, WH-RBD-TFc coated at 4 μg/mL, IgG titrated, detected with HRP goat anti-human IgG (Fab)
[3] = biological target: T1, 新型冠状病毒囊膜蛋白受体结合域 WH-RBD-TFc (SARS-CoV-2 …); assay: BLI, biotinylated WH-RBD-TFc immobilised (40 μg/ml), IgG titrated in solution (both partners bivalent)

B1: Fab-F1-A3 (Fab, V domains shown)
VH: QVQLVESGGGLVQPGGSLRLSCAASGFTVSSNYMSWVRQAPGKGLEWVSVIYSGGSTYYADSVKGRFTISRDNSKNTLYLQMNSLRAEDTAVYYCARGDGSDDYYYGMDVWGQGTTVTVSS
VL: QSVVTQPPSVSGAQGQRVFISCTGNGANIGMGYDVHWYQQLPGRAPKLLIFGNTNRPSGVPDRFSASRSGTSASLAITGLQTADEADYYCQSYDGNLRASVFGGGTKLTVLG
notes: also called 抗体Fab F1-A3
B1 was tested, and the EC50 [1] was 4 nM.

B2: IgG-F1-A3 (antibody, V domains shown)
VH: B1 VH
VL: B1 VL
B2 gave an EC50 [2] of about 0.78 nM and a Kd [3] of 0.013 nM.
